Measurements as given in patent US20220088146A1 (PALATIN TECHNOLOGIES, published 2022).
Numbered stars: 1 amine (or outer) side, 2 acyl side, 3 side chain; on linkers, the order of the positions; unused ones are H or OH. Bridge positions count the residues as written; N and C are the ends. Square brackets hold non-standard residues; d marks the D form. * marks the point of attachment. Cyclohexanecarbonyl = O=C(C1CCCCC1)*; Cyclohexylacetyl = O=C(CC1CCCCC1)*; Cyclopentylacetyl = O=C(CC1CCCC1)*; Cyclopropanecarbonyl = O=C(C1CC1)*; Hydrocinnamoyl = O=C(CCc1ccccc1)*; Suc = O=C(CCC(=O)[*:2])[*:1]; Heptanoyl = CCCCCCC(=O)*; Nle = CCCC[C@H](N)C(=O)O; Dab = NCC[C@H](N)C(=O)O; Dap = NC[C@H](N)C(=O)O; Hexanoyl = CCCCCC(=O)*; Pentanoyl = CCCCC(=O)*; PhAc = O=C(Cc1ccccc1)*; Butyryl = CCCC(=O)*

B1: Ac-Nle-cyclo(Glu-His-D-Phe-Arg-Dap)-Trp-NH2 (peptide)
peptide: Ac-[Nle]EH[dF]R[Dap]W-NH2
modifications: lactam 2-6
B2: α-MSH (Ac-Ser-Tyr-Ser-Met-Glu-His-Phe-Arg-Trp-Gly-Lys-Pro-Val-NH2) (ligand)
peptide: Ac-SYSMEHFRWGKPV-NH2
B3: CH3-(CH2)5-C(═O)-cyclo(Glu-His-D-Phe-Arg-Dab)-Trp-NH2 (peptide)
peptide: Heptanoyl-EH[dF]R[Dab]W-NH2
modifications: lactam 1-5
notes: also called 9.18
B4: CH3-(CH2)3-C(═O)-cyclo(Glu-His-D-Phe-Arg-Dab)-Trp-NH2 (peptide)
peptide: Pentanoyl-EH[dF]R[Dab]W-NH2
modifications: lactam 1-5
notes: also called 9.16
B5: cyclohexyl acetyl-cyclo(Glu-His-D-Phe-Arg-Dab)-Trp-NH2 (peptide)
peptide: Cyclohexylacetyl-EH[dF]R[Dab]W-NH2
modifications: lactam 1-5
notes: also called 9.22
B6: cyclo-hexanoyl-cyclo(Glu-His-D-Phe-Arg-Dab)-Trp-NH2 (peptide)
peptide: Cyclohexanecarbonyl-EH[dF]R[Dab]W-NH2
modifications: lactam 1-5
notes: also called 9.20
B7: CH3-(CH2)2-C(═O)-cyclo(Glu-His-D-Phe-Arg-Dab)-Trp-NH2 (peptide)
peptide: Butyryl-EH[dF]R[Dab]W-NH2
modifications: lactam 1-5
notes: also called 9.15
B8: cyclo-propanoyl-cyclo(Glu-His-D-Phe-Arg-Dab)-Trp-NH2 (peptide)
peptide: Cyclopropanecarbonyl-EH[dF]R[Dab]W-NH2
modifications: lactam 1-5
SMILES: N=C(N)NCCC[C@@H]1NC(=O)[C@@H](Cc2ccccc2)NC(=O)[C@H](Cc2c[nH]cn2)NC(=O)[C@@H](NC(=O)C2CC2)CCC(=O)NCC[C@@H](C(=O)N[C@@H](Cc2c[nH]c3ccccc23)C(N)=O)NC1=O
notes: also called 9.19
B9: Ac-Nle-cyclo(Cys-His-D-Phe-Arg-Cys)-Trp-NH2 (peptide)
peptide: Ac-[Nle]CH[dF]RCW-NH2
modifications: disulfide 2-6
notes: also called 9.5
B10: phenyl propanoyl-cyclo(Glu-His-D-Phe-Arg-Dab)-Trp-NH2 (peptide)
peptide: Hydrocinnamoyl-EH[dF]R[Dab]W-NH2
modifications: lactam 1-5
notes: also called 9.24
B11: cyclo(Suc-His-Phe-Arg-Dab)-Trp-NH2 (peptide)
peptide: [Suc]HFR[Dab]W-NH2
modifications: lactam N-5
SMILES: N=C(N)NCCC[C@@H]1NC(=O)[C@H](Cc2ccccc2)NC(=O)[C@H](Cc2c[nH]cn2)NC(=O)CCC(=O)NCC[C@@H](C(=O)N[C@@H](Cc2c[nH]c3ccccc23)C(N)=O)NC1=O
notes: also called 9.14
B12: Ac-Phe-cyclo(Glu-His-D-Phe-Arg-Dab)-Trp-NH2 (peptide)
peptide: Ac-FEH[dF]R[Dab]W-NH2
modifications: lactam 2-6
notes: also called 9.13
B13: Ac-Nle-cyclo(Glu-His-Phe-Arg-Dab)-Trp-NH2 (peptide)
peptide: Ac-[Nle]EHFR[Dab]W-NH2
modifications: lactam 2-6
notes: also called 9.8
B14: phenyl acetyl-cyclo(Glu-His-D-Phe-Arg-Dab)-Trp-NH2 (peptide)
peptide: PhAc-EH[dF]R[Dab]W-NH2
modifications: lactam 1-5
notes: also called 9.23
B15: CH3-(CH2)4-C(═O)-cyclo(Glu-His-D-Phe-Arg-Dab)-Trp-NH2 (peptide)
peptide: Hexanoyl-EH[dF]R[Dab]W-NH2
modifications: lactam 1-5
notes: also called 9.17
B16: Ac-Nle-cyclo(Glu-His-D-Phe-Arg-Lys)-Trp-NH2 (peptide)
peptide: Ac-[Nle]EH[dF]RKW-NH2
modifications: lactam 2-6
notes: also called 9.1
B17: cyclopentyl acetyl-cyclo(Glu-His-D-Phe-Arg-Dab)-Trp-NH2 (peptide)
peptide: Cyclopentylacetyl-EH[dF]R[Dab]W-NH2
modifications: lactam 1-5
notes: also called 9.21

target: melanocortin-5 receptor (UniProt P33032 1-325); assay: cell-based or functional assay
Sequence (P33032 whole entry): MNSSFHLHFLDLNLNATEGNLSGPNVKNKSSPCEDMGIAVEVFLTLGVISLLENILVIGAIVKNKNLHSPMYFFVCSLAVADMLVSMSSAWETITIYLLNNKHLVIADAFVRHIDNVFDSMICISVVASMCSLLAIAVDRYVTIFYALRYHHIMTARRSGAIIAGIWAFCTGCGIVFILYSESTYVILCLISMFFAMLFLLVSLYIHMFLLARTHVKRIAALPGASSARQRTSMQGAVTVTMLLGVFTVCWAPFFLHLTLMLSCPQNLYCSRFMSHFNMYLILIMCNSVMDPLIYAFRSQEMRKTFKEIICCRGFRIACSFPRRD

| Binder | Functional - CEREP (EC50; nM) |
| --- | --- |
| B1 | > 10000 nM |

target: melanocortin-2 receptor (UniProt Q01718 1-297); assay: cell-based or functional assay
Sequence (Q01718 whole entry): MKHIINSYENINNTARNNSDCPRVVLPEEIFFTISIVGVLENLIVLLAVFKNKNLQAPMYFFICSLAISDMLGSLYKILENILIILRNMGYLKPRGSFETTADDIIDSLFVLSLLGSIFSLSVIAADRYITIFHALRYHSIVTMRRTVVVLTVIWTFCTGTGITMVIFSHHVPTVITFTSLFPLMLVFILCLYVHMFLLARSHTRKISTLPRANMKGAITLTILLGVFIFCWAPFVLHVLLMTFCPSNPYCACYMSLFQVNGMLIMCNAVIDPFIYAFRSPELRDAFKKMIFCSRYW

| Binder | Functional - CEREP (EC50; nM) |
| --- | --- |
| B1 | > 10000 nM |
| B2 | > 10000 nM |

target: melanocortin-3 receptor (UniProt P41968 1-323); assay: cell-based or functional assay
Sequence (P41968 whole entry): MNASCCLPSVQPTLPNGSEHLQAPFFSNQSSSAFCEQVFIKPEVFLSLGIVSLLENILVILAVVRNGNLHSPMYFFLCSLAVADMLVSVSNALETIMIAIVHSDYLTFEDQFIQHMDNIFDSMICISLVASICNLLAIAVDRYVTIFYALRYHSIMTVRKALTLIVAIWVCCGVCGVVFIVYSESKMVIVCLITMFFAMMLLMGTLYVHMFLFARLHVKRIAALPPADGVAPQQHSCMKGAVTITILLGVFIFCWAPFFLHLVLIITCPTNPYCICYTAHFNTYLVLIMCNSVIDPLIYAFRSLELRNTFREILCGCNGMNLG

| Binder | Functional - CEREP (EC50; nM) |
| --- | --- |
| B1 | > 10000 nM |

target: T1, human melanocortin-4 receptor (human, UniProt P32245 1-332); assay: [I125]-NDP-α-MSH competition, hMC4r HEK-293 membranes
T1 construct: whole, on cells; Ki assay used membrane homogenates of HEK-293 cells expressing recombinant hMC4r; also called MC4r; hMC4r
T1 sequence (P32245 whole entry): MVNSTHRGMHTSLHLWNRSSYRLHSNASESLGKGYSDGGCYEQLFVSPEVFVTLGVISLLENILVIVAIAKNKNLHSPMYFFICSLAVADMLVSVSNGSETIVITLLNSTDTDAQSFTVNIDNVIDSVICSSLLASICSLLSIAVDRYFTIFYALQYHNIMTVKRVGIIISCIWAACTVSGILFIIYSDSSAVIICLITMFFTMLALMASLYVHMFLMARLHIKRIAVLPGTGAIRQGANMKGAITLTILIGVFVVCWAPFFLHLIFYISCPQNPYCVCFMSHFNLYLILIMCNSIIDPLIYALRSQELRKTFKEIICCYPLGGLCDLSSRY

| Binder | Ki |
| --- | --- |
| B3 | 100 nM |
| B4 | 365 nM |
| B5 | 63 nM |
| B6 | 165 nM |
| B7 | 890 nM |
| B8 | 640 nM |
| B9 | 540 nM |
| B10 | 285 nM |
| B11 | 10000 nM |
| B12 | 510 nM |
| B13 | 10000 nM |
| B14 | 205 nM |
| B15 | 110 nM |
| B16 | 45 nM |
| B17 | 93 nM |

target: T2, human melanocortin-1 receptor (human, UniProt Q01726 1-317); assay: [I125]-NDP-α-MSH competition, hMC1r HEK-293 membranes
T2 construct: whole, on cells; Ki assay used membrane homogenates of HEK-293 cells expressing recombinant hMC1r; cAMP assay used HBL cells that express hMC1r; also called MC1r; hMC1r
T2 sequence (Q01726 whole entry): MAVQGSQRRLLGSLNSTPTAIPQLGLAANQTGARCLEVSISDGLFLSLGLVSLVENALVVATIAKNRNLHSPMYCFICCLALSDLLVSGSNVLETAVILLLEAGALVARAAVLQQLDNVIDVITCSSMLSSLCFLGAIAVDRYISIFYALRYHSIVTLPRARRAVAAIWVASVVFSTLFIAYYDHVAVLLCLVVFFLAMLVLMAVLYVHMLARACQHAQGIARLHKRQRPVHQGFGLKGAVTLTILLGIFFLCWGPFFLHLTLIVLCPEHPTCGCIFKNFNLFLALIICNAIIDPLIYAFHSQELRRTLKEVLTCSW

| Binder | Ki |
| --- | --- |
| B8 | 3 nM |
| B11 | 310 nM |

target: T2, human melanocortin-1 receptor; assay: cell-based or functional assay

| Binder | MC-1 Emax (average; cAMP HBL) | MC-1 EC50 (average; cAMP HBL) |
| --- | --- | --- |
| B3 | 87% | – |
| B4 | 89% | – |
| B5 | 85% | – |
| B6 | 79% | – |
| B7 | 91% | – |
| B8 | 83% | – |
| B9 | 87% | – |
| B10 | 83% | – |
| B11 | 80% | 31 nM |
| B12 | 75% | – |
| B13 | 88% | – |
| B14 | 82% | – |
| B15 | 90% | – |
| B16 | 97% | – |
| B17 | 83% | – |
